This note sets out measurements from US20250011448A1 (STAIDSON BIOPHARMA, published 2025).

The target of assay [1] is T1, cynomolgus monkey TNFR2 extracellular domain with C-terminal 10×His tag (cynomolgus monkey, UniProt P20333 23-257 (human entry)).
T1 construct: also called cynoTNFR2-His; His-tag-cynoTNFR2
T1 chain: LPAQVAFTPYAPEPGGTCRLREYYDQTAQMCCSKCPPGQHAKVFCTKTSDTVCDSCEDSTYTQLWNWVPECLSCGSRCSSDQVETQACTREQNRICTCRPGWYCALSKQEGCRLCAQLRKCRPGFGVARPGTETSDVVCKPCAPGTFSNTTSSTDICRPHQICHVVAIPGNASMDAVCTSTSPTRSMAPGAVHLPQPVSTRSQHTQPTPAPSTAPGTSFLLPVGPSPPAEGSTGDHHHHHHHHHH
In words: ELISA, plate coated with His-tagged TNFR2 ECD, serial dilution of chimeric IgG. The protocol:
TNFR2 binding of purified recombinant chimeric antibodies: The huTNFR2, cynoTNFR2 antigen binding ELISA was performed on the purified recombinant chimeric antibodies. Briefly, 384-well, clear, flat bottom, high binding plates (VWR, cat #29444-096) were coated overnight at 4° C. with 1 μg/mL of huTNFR2 or cynomolgus monkey TNFR2-His in PBS. After removing the coating solution, the plates were blocked by adding blocking buffer and incubated at room temperature for 1 hour. Plates were then washed 3 times with wash buffer. Serial dilution of purified antibodies in PBS was added to individual well followed by incubation at room temperature for 1 hour. Plates were washed 3 times with wash buffer. Then 50 μL/well of goat anti hu Kappa —AP (Southern Biotech, cat #2061-04) at 1:3000 dilution or goat anti human IgG Fc-AP at 1:3000 dilution in ELISA diluent was added, incubated at room temperature for 1 hour, washed 5 times with wash buffer and developed for 30 minutes with 50 μL/well of pNPP substrate. Plates were analyzed with a Bio-TEK at 405 nm. The chimeric TNFR2 antibodies were tested positive for binding to huTNFR2 and cynoTNFR2. The TNFR2 binding EC50 values are shown in Table 6, FIG. 1A (for huTNFR2) and FIG. 1B (for cynoTNFR2).
On the technique in general: ELISA stands for enzyme-linked immunosorbent assay.

In assay [2] the target is T1, cynomolgus monkey TNFR2 extracellular …. In words: BLI (Octet RED96), antibody captured on AHC biosensor, His-tagged TNFR2 in solution, 1:1 model. The protocol: (§1) The following kinetic assay was performed using anti-human IgG Fc capture (AHC) biosensors (ForteBio) in kinetics buffer (PBS, 0.1% Tween-20 and 1% bovine serum albumin): (a) antibody (2 μg/mL) for 300 sec, (b) baseline for 120 sec, (c) association with His-tag-huTNFR2 (2.5, 0.5 and 0 μg/mL) and His-tag-cynoTNFR2 (2.5, 0.5 and 0 μg/mL) for 420 sec and (d) dissociation for 1200 sec. Data fitting and analysis was performed with Octet data analysis software 8.0 (ForteBio) using a 1:1 binding model after Savitzky-Golay filtering.
For orientation: In BLI a coated tip is dipped into the sample, and binding shifts an interference pattern.

The target in assay [3] is T2, cynomolgus monkey TNFR2 extracellular domain as used in the blocking ELISA (cynomolgus monkey, UniProt P20333 23-257 (human entry)).
T2 construct: also called cynoTNFR2
T2 chain: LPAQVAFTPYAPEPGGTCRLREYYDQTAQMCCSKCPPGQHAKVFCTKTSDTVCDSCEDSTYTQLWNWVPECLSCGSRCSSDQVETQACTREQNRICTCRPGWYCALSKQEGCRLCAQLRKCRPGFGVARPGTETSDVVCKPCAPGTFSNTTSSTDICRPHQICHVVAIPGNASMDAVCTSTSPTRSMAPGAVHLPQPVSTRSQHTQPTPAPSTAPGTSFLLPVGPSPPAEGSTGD
As to the kind of experiment: blocking ELISA: antibody pre-mixed with cynoTNFR2, binding of cynoTNFR2 to coated cynomolgus monkey TNFα read out. The protocol: 96-well round bottom ELISA plates were coated overnight at 4° C. with 50 μL/well of 0.5 μg/mL human TNFα recombinant protein (R&D system, Cat #210-TA-100) in coating buffer. After removing the coating solution, blocking buffer was added into the plates followed by incubation at room temperature for 1 hour in order to block unspecific binding. During the blocking period, hybridoma antibodies samples were mixed with 0.5 μg/mL TNFR2-huFc at a 1:1 volume ratio and incubated at room temperature for another 1.5 hours. Then 50 μL/well of antigen-antibody mix solution was transferred into TNFα coated wells and incubated at room temperature for 1.5 hours. Plates were then washed 5 times with wash buffer. Then, 50 μL/well of goats anti-human IgG Fc-AP (Southern Biotech, cat #2014-04) at 1:2000 dilution in assay buffer was added, incubated at room temperature for 1 hour, washed 4 times with wash buffer and developed for 30 minutes with 50 μL/well of pNPP substrate. Plates were analyzed with a Synergy HT (Bio-TEK) at 405 nm. Parental hybridomas with the desired human and cynoTNFR2 binding as well as the ability to block human TNFR2 and human TNFα binding were prioritized for subcloning and further characterization. Subcloning was carried out with limited dilution and visual inspection was performed to ensure clonality. Hybridoma subclones were screened with the same binding and blocking assays and selected positive hits were cryopreserved.
TNFR2 blocking by purified recombinant chimeric antibodies: Human TNFR2 blocking ELISA was performed on purified recombinant chimeric antibodies following the same protocol as described above, except that 50 μL/well of serial dilution of purified antibodies (starting at 10 μg/mL, 1:3 dilution) in assay buffer was added into the reaction. The blocking IC₅₀ value represents the antibody concentration that inhibited 50% of huTNFR2 or cynoTNFR2 binding to coated human TNFα or cynomolgus monkey TNFα.

The target in assay [4] is T3, human TNFR2 extracellular domain with C-terminal 10×His tag (human, UniProt P20333 23-257).
T3 construct: also called huTNFR2-His; His-tag-huTNFR2
T3 sequence: T1 chain with G16S, P36S, Q117P, H164N, A210E, G216S, V223M
In words: BLI (Octet RED96), antibody captured on AHC biosensor, His-tagged TNFR2 in solution, 1:1 model. The protocol:
as §1

In assay [5] the target is T3, human TNFR2 extracellular domain with …. As to the kind of experiment: BLI (Octet RED96), antibody captured on AHC biosensor, His-tag-huTNFR2 in solution, 1:1 model. The protocol:
The following kinetic assay was performed using anti-human IgG Fc capture (AHC) biosensors (ForteBio) in kinetics buffer (PBS, 0.1% Tween-20 and 1% bovine serum albumin): (a) antibody (2 μg/mL) for 300 sec, (b) baseline for 120 sec, (c) association with His-tag-huTNFR2 (2.5, 0.5 and 0 μg/mL) for 420 sec and (d) dissociation for 1200 sec. Data fitting and analysis was performed with Octet data analysis software 8.0 (ForteBio) using a 1:1 binding model after Savitzky-Golay filtering. The dissociation constant (Kd) was calculated as the ratio of Koff/Kon.

Assay [6] deals with T4, human TNFR2 expressed on cells (Expi293 cells stably expressing huTNFR2) (human, UniProt P20333 23-461).
T4 construct: whole, on cells; Also used here as the target of the Treg assay (native TNFR2 on human primary Treg cells); also called huTNFR2 expressed cells; Expi293-TNFR2 cells
T4 sequence (looked up): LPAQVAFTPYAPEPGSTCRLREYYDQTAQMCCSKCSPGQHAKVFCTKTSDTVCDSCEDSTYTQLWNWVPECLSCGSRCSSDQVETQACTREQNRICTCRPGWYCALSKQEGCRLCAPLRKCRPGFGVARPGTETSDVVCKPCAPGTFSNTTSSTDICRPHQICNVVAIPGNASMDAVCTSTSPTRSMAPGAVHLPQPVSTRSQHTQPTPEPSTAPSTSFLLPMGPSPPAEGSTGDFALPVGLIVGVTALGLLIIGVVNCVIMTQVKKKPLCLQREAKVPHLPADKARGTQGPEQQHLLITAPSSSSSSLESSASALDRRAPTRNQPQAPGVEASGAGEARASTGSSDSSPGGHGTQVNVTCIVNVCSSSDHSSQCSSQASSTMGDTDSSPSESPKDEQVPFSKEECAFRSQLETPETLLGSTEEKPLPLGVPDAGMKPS
In words: flow cytometry on Expi293 cells stably expressing huTNFR2, y axis TNFR2 binding (MFI). The protocol:
The coding sequence of huTNFR2 (Uniprot, P20333) was cloned into a lentiviral vector and the virus was packaged according to the instruction of the virus packaging kit (Lenti-X™ Packaging Single Shots, Cat #631275, Takada). The Expi293 cells were transduced with the recombinant virus and selected by puromycin. The cell line stably expressing huTNFR2 was incubated with anti-TNFR2 antibodies in PBS with 0.5% BSA, 1 mM EDTA, and 0.1% sodium azide (FACS buffer) for 30 minutes at 4° C. The cells were washed, and then incubated with 10 nM phycoerythrin (PE) conjugated anti-Human Fe Ab (Biolegend, cat #409304) for 20 minutes at 4° C. Cells were washed and then […] by flow cytometry with Attune (ThermoFisher Scientific). Data were analyzed with FlowJo software. Antibody binding is represented as median fluorescence intensity (MFI).
FACS based binding and blocking assays of humanized antibodies were performed as described above.

Substitutions are numbered along the chain they refer to.

B1: 51B5 chimeric anti-TNFR2 antibody (antibody, V domains shown)
VH: QVQLQQSGAELARPGTSVKLSCKASGYTFTDDYIDWVKQRTGQGLEWIGEIYPGSGNTYYNEKFKGKATLTADKSSSTAYMQLSSLTSEDSAVYFCARSQVYGKIAMDHWGQGTSVTVSS
VL: DIVLTQSPASLAVSLGQRATISCRASESVDNSGNSFMHWYQQIPGQPPKLLIYRASNLESGIPARFSGSGARTDFTLTIDPVGAVDVATYYCQQSKEDPYTFGGGTKLEIE
notes: Chimeric: mouse variable domains with human constant regions, made as recombinant IgG1
A word on the EC50: it is the concentration that produces a half-maximal response. As usually defined, the Kd is the concentration at which binding is half-saturated. For orientation: koff means the rate constant with which the complex falls apart. For orientation: kon means the second-order rate constant of association. The term IC50 denotes the concentration that inhibits the measured activity by half. Consider B1, for which, in assay [1], it took 49.4 pM to reach a half-maximal effect (EC50). In assay [2], binding was put at a Kd of 672 pM, the koff is 0.00065 s⁻¹ and the on-rate (kon) turned out to be 967000 M⁻¹ s⁻¹. In addition, in assay [3], the IC50 worked out at 968 pM.

B2: 6F12 chimeric anti-TNFR2 antibody (antibody, V domains shown)
VH: QIQLVQSGPELKKPGETVKISCKTSGYTFTIYGMNWVKQAPGKGLKWMGWIHTYTGEPTYADDFKGRFVFSLETSDSTAYLQINNLKSEDMATYFCVRRERYGSFWGQGTLVTVSA
VL: DIVLTQSPASLAVSLGQRATISCTASQSVDYGGVSYMNWYQQKPGQPPKLLIYGASNQESGIPVRFSGSGSGTDFTLNIHPVEEEDAATYYCQQSNEDPPTFGAGTKLELK
notes: as for B1
In assay [4], B2 gave an equilibrium dissociation constant (Kd) of 3770 pM, a dissociation rate constant (koff) of 0.000886 s⁻¹ and a kon of 239000 M⁻¹ s⁻¹.

B3: SB1901-68 humanized anti-TNFR2 antibody (antibody, V domains shown)
VH: QVQLVQSGAEVKKPGASVKVSCKASGYTFTDDYIDWVRQATGQGLEWIGEIYPGSGNTYYNEKFKGRVTMTRDTSISTAYMELSSLRSEDTAVYYCARSQVYGKIAMDHWGQGTLVTVSS
VL: DIVMTQSPDSLAVSLGERATINCRASESVDNSGNSFMHWYQQKPGQPPKLLIYRASNLESGVPDRFSGSGSRTDFTLTISSLQAEDVAVYYCQQSKEDPYTFGQGTKVEIK
For the molecule B3, in assay [5], the Kd worked out at 1950 pM, the koff came out at 0.000796 s⁻¹ and the kon turned out to be 408000 M⁻¹ s⁻¹.

B4: SB1901-80 humanized anti-TNFR2 antibody (antibody, V domains shown)
VH: B3 VH with T41P, I76T, A79V
VL: B3 VL
By EC50 (read off the curve) is commonly meant the midpoint of the concentration-response curve. In the case of B4, the “EC50 (read off the curve)” value in assay [6] was roughly 600 pM. In assay [5], this molecule showed a Kd of 2520 pM, a koff of 0.000937 s⁻¹ and an on-rate constant (kon) of 373000 M⁻¹ s⁻¹.

B5: SB1901-78 (antibody, V domains shown)
VH: B3 VH with R72A, T74K
VL: B3 VL
notes: humanized version of 51B5; also called SB1901-78 humanized anti-TNFR2 antibody
Turning to B5, the “EC50 (read off the curve)” value in assay [6] was roughly 600 pM.

B6: SB1901-69 humanized anti-TNFR2 antibody (antibody, V domains shown)
VH: B3 VH with I48M, T74K
VL: B3 VL with S71A, R72G
In assay [5], B6 displayed a Kd of 1250 pM, a koff of 0.000513 s⁻¹ and an association rate constant (kon) of 410000 M⁻¹ s⁻¹.

B7: SB1901-82 (antibody, V domains shown)
VH: B3 VH with T41P, I48M, I76T, A79V
VL: B3 VL
notes: humanized version of 51B5; also called SB1901-82 humanized anti-TNFR2 antibody
Consider B7, for which the “EC50 (read off the curve)” value in assay [6] was roughly 600 pM.

B8: SB1901-74 (antibody, V domains shown)
VH: B3 VH with D73N, S75A
VL: B3 VL
notes: humanized version of 51B5; also called SB1901-74 humanized anti-TNFR2 antibody
For B8, the “EC50 (read off the curve)” value in assay [6] is roughly 600 pM.
